Experimental data taken from patent US20200369774A1 (JIANGSU HENGRUI MEDICINE, published 2020).

Assays:
[1] = molecular target: T1, hIL-6R.BP15 (human interleukin-6 receptor with BP15 tag, biotinylated) (human, UniProt P08887 20-365, site-directed biotinylation on the BP15 tag); test: blocking ELISA: coated gp130, IL-6.his and IL-6R.BP15 (0.06 ug/ml) with serially diluted antibody, HRP-streptavidin, OD450; blocked: binding of the IL-6/IL-6R complex to gp130; unit from the abscissa
T1 sequence: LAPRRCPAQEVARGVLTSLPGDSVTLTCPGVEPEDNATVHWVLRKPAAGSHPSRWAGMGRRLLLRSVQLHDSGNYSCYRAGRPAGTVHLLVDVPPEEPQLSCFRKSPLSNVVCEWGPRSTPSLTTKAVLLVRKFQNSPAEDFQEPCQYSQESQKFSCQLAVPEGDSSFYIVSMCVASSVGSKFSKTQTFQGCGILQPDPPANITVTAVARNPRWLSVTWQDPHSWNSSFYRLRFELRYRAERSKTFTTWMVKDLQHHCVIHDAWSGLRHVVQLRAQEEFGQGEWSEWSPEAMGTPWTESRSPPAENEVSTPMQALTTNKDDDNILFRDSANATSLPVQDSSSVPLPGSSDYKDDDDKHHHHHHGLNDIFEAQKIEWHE
Method: The complex of IL-6 and IL-6R can bind to GP130. The assay will evaluate if the selected antibodies were able to block the formation of IL-6/IL-6R/gp130 complex by binding to IL-6R. The plates were coated with 1 μg/ml gp130 (diluted in PBS) at 4° C. overnight. The coating solution was discarded, and plates were blocked with 5% skim milk in PBS at 37° C. for 2-3h. After blocking, the plates were washed 3 times with washing buffer PBST (0.1% Tween-20 in PBS).
IL-6.his and IL-6R.BP15 were diluted with 1% BSA in PBS to a concentration of 0.06 μg/ml. Starting at 50 ug/ml, IL-6R antibodies were 1:3 serially diluted in dilution buffer and Both testing antibody samples and IL-6/IL-6R complex were added to the plate followed by lh incubation at 37° C. After that, the plates were washed for 3 times with washing buffer PBST (0.1% Tween-20 in PBS).
1:2000 diluted Secondary antibody HRP streptavidin (Jackson, 016-030-084) was added to the plate followed by 1 h incubation at 37° C.After incubation and wash,. TMB was used for development. OD₄₅₀ values were read.

[2] = molecular target: T2, membrane-type IL-6R on cells (U266B1, TF-1, Hep3B) (UniProt P08887 20-468, limits assumed); test: cell-based or functional assay
T2 sequence (looked up): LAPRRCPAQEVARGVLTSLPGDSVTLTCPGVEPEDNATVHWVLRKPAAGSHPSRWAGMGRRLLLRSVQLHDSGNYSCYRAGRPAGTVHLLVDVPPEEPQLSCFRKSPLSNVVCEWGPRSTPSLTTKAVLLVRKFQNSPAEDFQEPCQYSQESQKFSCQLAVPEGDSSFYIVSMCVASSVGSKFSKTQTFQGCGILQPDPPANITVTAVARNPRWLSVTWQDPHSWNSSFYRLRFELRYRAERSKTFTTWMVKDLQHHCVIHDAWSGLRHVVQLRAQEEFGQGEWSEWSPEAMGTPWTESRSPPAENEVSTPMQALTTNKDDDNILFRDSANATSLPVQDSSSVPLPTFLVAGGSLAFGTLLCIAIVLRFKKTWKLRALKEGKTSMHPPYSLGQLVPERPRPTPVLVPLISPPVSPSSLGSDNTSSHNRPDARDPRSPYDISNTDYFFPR

[3] = molecular target: T1, hIL-6R.BP15 (human interleukin-6 …); test: blocking ELISA: coated IL-6.Fc, 1 ng/ul biotinylated IL-6R.BP15 with serially diluted antibody, HRP-streptavidin, OD450; blocked ligand IL-6.Fc; unit from the abscissa
Method: The formation of IL-6R/IL-6 complex can be blocked by the binding of IL-6R antibody to IL-6R, indicating the downstream cell signaling could be blocked by preventing IL-6/IL-6Rcomplex formationon the cell membrane. All of the expressed the purified antibodies were tested for their abilities to block the binding between IL-6 and IL-6R by ELISA. The procedures was descripted as follows:
The plates were coated with100 μl of 2 ng/μl IL-6.Fc at 4° C. overnight, and blocked with 2% skim milk at 37° C. for 1 hour. The plates were then washed, incubated with 100 μl of serial diluted testing samples with and 1 ng/μl IL-6R.BP15. After 1 hourincubation at 37° C,. the plates were washed andHRP-streptavidin (Jackson, 016-030-084) diluted at 1:4000 was added to the plate followed by incubation. After wash and 100 μl TMB develoment at room temperature for 5 min. 100 μl of 1M H₂SO₄ was added to terminate the reaction. The OD₄₅₀ values were read.

B1: Tocilizumab (antibody, human IgG1, kappa, V domains shown)
VH: EVQLQESGPGLVRPSQTLSLTCTVSGYSITSDHAWSWVRQPPGRGLEWIGYISYSGITTYNPSLKSRVTMLRDTSKNQFSLRLSSVTAADTAVYYCARSLARTTAMDYWGQGSLVTVSS
VL: DIQMTQSPSSLSASVGDRVTITCRASQDISSYLNWYQQKPGKAPKLLIYYTSRLHSGVPSRFSGSGSGTDFTFTISSLQPEDIATYYCQQGNTLPYTFGQGTKVEIKR
notes: Positive control; also called anti-IL-6R humanized mAb tocilizumab
[1]
  IC50: 0.49 µg/mL
[2]
  Relative expression level of hepcidin mRNA (fold) in Hep3B cells with 5 nM antibody and 10 ng/ml IL-6 (blank 1; IL-6 only 2.783): 1.87 fold
[3]
  IC50: 0.466 µg/mL

B2: Sari (antibody, human IgG1, kappa, V domains shown)
VH: EVQLVESGGGLVQPGRSLRLSCAASRFTFDDYAMHWVRQAPGKGLEWVSGISWNSGRIGYADSVKGRFTISRDNAENSLFLQMNGLRAEDTALYYCAKGRDSFDIWGQGTMVTVSS
VL: DIQMTQSPSSVSASVGDRVTITCRASQGISSWLAWYQQKPGKAPKLLIYGASSLESGVPSRFSGSGSGTDFTLTISSLQPEDFASYYCQQANSFPYTFGQGTKLEIKR
notes: Positive control antibody; also called Sarilumab; anti-IL-6R antibody sarilumab (Regeneron)
[1]
  IC50: 0.0474 µg/mL
[3]
  IC50: 0.5 µg/mL
